Legend:
normotensive Wister rats = experiment: Bradykinin-potentiating effect on blood pressure in anaesthetized normotensive rats; type: in vivo, rat; conditions: Captopril 1.5 × 10^−4 M + Bradykinin 2.5 × 10^−6 M
Procedure: In the in vivo experiments with normotensive rats the animals were previously anaesthetized and after blood pressure stabilization treated with a constant amount of bradykinin. Subsequently, either Captopril or human BPP were administered, again followed by a constant amount of bradykinin. Afterwards the maximum blood pressure drop was determined and, on the basis of bradykinin as a factor 1, the potentiating factor was determined. In the same way, the systolic and diastolic blood pressure, the percentage middle pressure decrease and the time required to come back to the baseline values were measured (see tables 4a to 4j). A detailed experimental description is given below.
2. Measurement of Blood Pressure in Normotensive and Hypertensive Rats
The trials were conducted on female anaesthetized normotensive Wister rats with weight ranging from 210 to 240 g.
The peptide pANP48-57 used for the in vivo assays was synthesized by Biosynthan (Berlin) with a HPLC-determined purity of 98%.
Anaesthetizing was performed by i.p.-administration of 1 ml/kg Ketavit (100 mg/ml)+Rampun (2%).
In order to conduct the blood pressure measurement, a polyethylene catheter was introduced into the Aorta femuralis and connected with a pressure transducer. A Statham-P23A pressure-transducer was linked to a Gould Polygraph and used to determine the arterial blood pressure. A Hg-manometer was used to calibrate the system.
All substances were dissolved and diluted in a physiological sodium chloride solution and introduced into the Vena jugularis via a catheter.
After stabilization of blood pressure (after about 10 minutes) […] body weight of a 2,5 μM bradykinin-solution (Sigma) was administered.
The middle pressure was determined from the measured diastolic (pd) and systolic (ps) blood pressure by using the following formula: pm=(ps−Pd)×0,42+pd.

[1] = target: T1, angiotensin-converting enzyme (ACE) from pig kidney (EC 3.4.15.1 (Sigma)) (pig) (UniProt F1RRW5); experiment: cell-based or functional assay
T1 sequence (looked up): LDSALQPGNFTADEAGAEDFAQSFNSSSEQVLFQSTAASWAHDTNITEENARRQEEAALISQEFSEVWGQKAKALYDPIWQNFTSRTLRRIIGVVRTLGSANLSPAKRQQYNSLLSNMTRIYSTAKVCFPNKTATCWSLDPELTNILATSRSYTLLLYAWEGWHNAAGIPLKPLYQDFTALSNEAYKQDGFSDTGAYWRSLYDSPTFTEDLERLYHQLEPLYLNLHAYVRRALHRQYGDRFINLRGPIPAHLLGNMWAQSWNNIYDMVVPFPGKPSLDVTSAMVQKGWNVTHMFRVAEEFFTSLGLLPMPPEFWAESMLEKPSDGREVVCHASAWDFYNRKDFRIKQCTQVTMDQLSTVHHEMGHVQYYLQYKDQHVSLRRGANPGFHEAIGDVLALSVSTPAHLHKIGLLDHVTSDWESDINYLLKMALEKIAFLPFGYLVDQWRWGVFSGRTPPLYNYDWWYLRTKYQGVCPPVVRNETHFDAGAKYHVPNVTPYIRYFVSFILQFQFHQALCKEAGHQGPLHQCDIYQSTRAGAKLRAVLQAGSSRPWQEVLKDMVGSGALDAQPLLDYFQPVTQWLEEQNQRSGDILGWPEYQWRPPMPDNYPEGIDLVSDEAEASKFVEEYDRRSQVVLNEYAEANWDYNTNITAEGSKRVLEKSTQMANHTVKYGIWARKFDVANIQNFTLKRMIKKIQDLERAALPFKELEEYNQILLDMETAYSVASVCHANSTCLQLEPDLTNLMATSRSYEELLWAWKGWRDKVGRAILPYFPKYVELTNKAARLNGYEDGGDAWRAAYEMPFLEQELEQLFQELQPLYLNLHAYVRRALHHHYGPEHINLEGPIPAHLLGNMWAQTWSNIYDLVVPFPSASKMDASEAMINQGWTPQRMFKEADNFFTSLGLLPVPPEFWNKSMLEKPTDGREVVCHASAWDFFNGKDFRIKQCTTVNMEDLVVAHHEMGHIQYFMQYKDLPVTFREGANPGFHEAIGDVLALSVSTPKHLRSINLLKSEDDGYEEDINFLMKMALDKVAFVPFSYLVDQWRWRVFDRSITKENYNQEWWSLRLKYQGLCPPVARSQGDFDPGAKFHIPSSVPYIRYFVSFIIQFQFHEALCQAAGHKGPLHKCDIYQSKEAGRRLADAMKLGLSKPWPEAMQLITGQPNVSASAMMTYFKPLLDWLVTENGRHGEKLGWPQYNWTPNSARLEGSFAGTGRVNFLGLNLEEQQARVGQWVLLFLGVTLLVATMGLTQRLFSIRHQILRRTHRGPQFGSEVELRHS

[2] = target: T2, angiotensin-converting-enzyme derived from pig kidney (pig) (UniProt F1RRW5); experiment: cell-based or functional assay
T2 sequence (looked up): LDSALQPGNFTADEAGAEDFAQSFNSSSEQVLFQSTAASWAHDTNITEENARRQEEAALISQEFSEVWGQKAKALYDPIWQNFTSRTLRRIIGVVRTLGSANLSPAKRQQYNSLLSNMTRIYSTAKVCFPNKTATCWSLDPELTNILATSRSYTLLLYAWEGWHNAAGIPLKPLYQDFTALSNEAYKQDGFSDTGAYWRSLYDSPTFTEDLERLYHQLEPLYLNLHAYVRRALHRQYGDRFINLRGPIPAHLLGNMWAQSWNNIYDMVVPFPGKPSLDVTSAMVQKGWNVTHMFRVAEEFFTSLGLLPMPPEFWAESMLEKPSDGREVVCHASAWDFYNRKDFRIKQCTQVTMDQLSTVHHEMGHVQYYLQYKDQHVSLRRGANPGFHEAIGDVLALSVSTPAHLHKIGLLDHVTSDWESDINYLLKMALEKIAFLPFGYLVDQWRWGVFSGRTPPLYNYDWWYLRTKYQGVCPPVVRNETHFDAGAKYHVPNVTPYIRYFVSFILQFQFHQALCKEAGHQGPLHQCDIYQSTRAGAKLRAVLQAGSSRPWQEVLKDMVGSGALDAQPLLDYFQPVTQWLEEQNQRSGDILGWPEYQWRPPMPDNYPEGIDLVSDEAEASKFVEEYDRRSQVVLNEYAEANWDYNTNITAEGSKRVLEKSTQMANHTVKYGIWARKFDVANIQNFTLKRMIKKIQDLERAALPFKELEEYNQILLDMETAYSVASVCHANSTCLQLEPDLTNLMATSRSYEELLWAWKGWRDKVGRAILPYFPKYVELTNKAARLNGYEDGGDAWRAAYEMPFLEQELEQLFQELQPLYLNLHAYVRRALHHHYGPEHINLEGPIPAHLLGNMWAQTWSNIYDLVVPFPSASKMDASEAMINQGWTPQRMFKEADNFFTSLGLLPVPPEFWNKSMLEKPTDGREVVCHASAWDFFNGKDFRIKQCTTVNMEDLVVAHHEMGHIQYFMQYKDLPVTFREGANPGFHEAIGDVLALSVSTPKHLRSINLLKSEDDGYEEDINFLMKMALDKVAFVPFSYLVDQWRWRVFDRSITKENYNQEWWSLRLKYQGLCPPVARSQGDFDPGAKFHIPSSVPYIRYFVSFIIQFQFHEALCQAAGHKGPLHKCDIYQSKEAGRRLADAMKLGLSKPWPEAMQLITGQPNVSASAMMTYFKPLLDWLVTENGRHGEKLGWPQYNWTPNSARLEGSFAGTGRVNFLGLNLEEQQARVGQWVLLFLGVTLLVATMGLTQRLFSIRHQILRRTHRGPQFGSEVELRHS

C[C@H](CS)C(=O)N1CCC[C@H]1C(=O)O [Captopril, reference compound]
potentiating factor (factor by which the blood pressure reducing effect of Bradykinin is potentiated, Bradykinin = 1) (normotensive Wister rats): 2
maximal drop of blood pressure (normotensive Wister rats; normotensive rats): 56% ± 17.3

PLPEVPP [Peptid S548 (PLPEVPP)]
% inhibition of ACE, 0.39 µM inhibitor, row A [1]: 9.98%
% inhibition of ACE, 0.39 µM inhibitor, row B [1]: 5.85%
% inhibition of ACE, 0.39 µM inhibitor, row C [1]: 4.63%
% inhibition of ACE, 0.39 µM inhibitor, row D [1]: -9.77%
% inhibition of ACE, 0.78125 µM inhibitor, row A [1]: 12.8%
% inhibition of ACE, 0.78125 µM inhibitor, row B [1]: 18.5%
% inhibition of ACE, 0.78125 µM inhibitor, row C [1]: 6.03%
% inhibition of ACE, 0.78125 µM inhibitor, row D [1]: 2.73%
% inhibition of ACE, 1.5625 µM inhibitor, row A [1]: 14.3%
% inhibition of ACE, 1.5625 µM inhibitor, row B [1]: 25.6%
% inhibition of ACE, 1.5625 µM inhibitor, row C [1]: 11.2%
% inhibition of ACE, 1.5625 µM inhibitor, row D [1]: 4.98%
% inhibition of ACE, 3.125 µM inhibitor, row A [1]: 20.4%
% inhibition of ACE, 3.125 µM inhibitor, row B [1]: 18.6%
% inhibition of ACE, 3.125 µM inhibitor, row C [1]: 16.3%
% inhibition of ACE, 3.125 µM inhibitor, row D [1]: 12.7%
% inhibition of ACE, 6.25 µM inhibitor, row A [1]: 30.6%
% inhibition of ACE, 6.25 µM inhibitor, row B [1]: 28.8%
% inhibition of ACE, 6.25 µM inhibitor, row C [1]: 25.2%
% inhibition of ACE, 6.25 µM inhibitor, row D [1]: 22.6%
% inhibition of ACE, 12.5 µM inhibitor, row A [1]: 36.8%
% inhibition of ACE, 12.5 µM inhibitor, row B [1]: 37.2%
% inhibition of ACE, 12.5 µM inhibitor, row C [1]: 35.7%
% inhibition of ACE, 12.5 µM inhibitor, row D [1]: 31.6%
% inhibition of ACE, 25 µM inhibitor, row A [1]: 55.7%
% inhibition of ACE, 25 µM inhibitor, row B [1]: 54.8%
% inhibition of ACE, 25 µM inhibitor, row C [1]: 56.7%
% inhibition of ACE, 25 µM inhibitor, row D [1]: 54.5%
% inhibition of ACE, 50 µM inhibitor, row A [1]: 69.5%
% inhibition of ACE, 50 µM inhibitor, row B [1]: 68.1%
% inhibition of ACE, 50 µM inhibitor, row C [1]: 64.2%
% inhibition of ACE, 50 µM inhibitor, row D [1]: 62.3%
% inhibition of ACE, 100 µM inhibitor, row A [1]: 81.8%
% inhibition of ACE, 100 µM inhibitor, row B [1]: 80.4%
% inhibition of ACE, 100 µM inhibitor, row C [1]: 78.9%
% inhibition of ACE, 100 µM inhibitor, row D [1]: 77.8%
% inhibition of ACE, 200 µM inhibitor, row A [1]: 89.3%
% inhibition of ACE, 200 µM inhibitor, row B [1]: 88.5%
% inhibition of ACE, 200 µM inhibitor, row C [1]: 88.4%
% inhibition of ACE, 200 µM inhibitor, row D [1]: 87.9%
fluorescence (ACE activity), 0.39 µM inhibitor, row A [1]: 813000
fluorescence (ACE activity), 0.39 µM inhibitor, row B [1]: 850000
fluorescence (ACE activity), 0.39 µM inhibitor, row C [1]: 861000
fluorescence (ACE activity), 0.39 µM inhibitor, row D [1]: 990000
fluorescence (ACE activity), 0.78125 µM inhibitor, row A [1]: 788000
fluorescence (ACE activity), 0.78125 µM inhibitor, row B [1]: 737000
fluorescence (ACE activity), 0.78125 µM inhibitor, row C [1]: 848000
fluorescence (ACE activity), 0.78125 µM inhibitor, row D [1]: 878000
fluorescence (ACE activity), 1.5625 µM inhibitor, row A [1]: 774000
fluorescence (ACE activity), 1.5625 µM inhibitor, row B [1]: 673000
fluorescence (ACE activity), 1.5625 µM inhibitor, row C [1]: 803000
fluorescence (ACE activity), 1.5625 µM inhibitor, row D [1]: 858000
fluorescence (ACE activity), 3.125 µM inhibitor, row A [1]: 720000
fluorescence (ACE activity), 3.125 µM inhibitor, row B [1]: 736000
fluorescence (ACE activity), 3.125 µM inhibitor, row C [1]: 756000
fluorescence (ACE activity), 3.125 µM inhibitor, row D [1]: 789000
fluorescence (ACE activity), 6.25 µM inhibitor, row A [1]: 628000
fluorescence (ACE activity), 6.25 µM inhibitor, row B [1]: 644000
fluorescence (ACE activity), 6.25 µM inhibitor, row C [1]: 676000
fluorescence (ACE activity), 6.25 µM inhibitor, row D [1]: 699000
fluorescence (ACE activity), 12.5 µM inhibitor, row A [1]: 573000
fluorescence (ACE activity), 12.5 µM inhibitor, row B [1]: 668000
fluorescence (ACE activity), 12.5 µM inhibitor, row C [1]: 583000
fluorescence (ACE activity), 12.5 µM inhibitor, row D [1]: 619000
fluorescence (ACE activity), 25 µM inhibitor, row A [1]: 402000
fluorescence (ACE activity), 25 µM inhibitor, row B [1]: 411000
fluorescence (ACE activity), 25 µM inhibitor, row C [1]: 394000
fluorescence (ACE activity), 25 µM inhibitor, row D [1]: 413000
fluorescence (ACE activity), 50 µM inhibitor, row A [1]: 278000
fluorescence (ACE activity), 50 µM inhibitor, row B [1]: 292000
fluorescence (ACE activity), 50 µM inhibitor, row C [1]: 326000
fluorescence (ACE activity), 50 µM inhibitor, row D [1]: 343000
fluorescence (ACE activity), 100 µM inhibitor, row A [1]: 168000
fluorescence (ACE activity), 100 µM inhibitor, row B [1]: 181000
fluorescence (ACE activity), 100 µM inhibitor, row C [1]: 194000
fluorescence (ACE activity), 100 µM inhibitor, row D [1]: 204000
fluorescence (ACE activity), 200 µM inhibitor, row A [1]: 101000
fluorescence (ACE activity), 200 µM inhibitor, row B [1]: 108000
fluorescence (ACE activity), 200 µM inhibitor, row C [1]: 109000
fluorescence (ACE activity), 200 µM inhibitor, row D [1]: 114000

QVLSEPNEEAGAALSPLPEVPP (N-terminal pyroglutamate) [S492]
IC50, ACE inhibition [2]: > 300 µM
